Reference: patent US20080207449A1 (CROPDESIGN N V, published 2008)

T1: GAL4 transactivation domain fusion of AtDPa 1-292 (prey in pAD-GAL424) (Arabidopsis thaliana, UniProt Q9FNY3 1-292)
T1 construct: also called full-length AtDPa prey
T1 sequence: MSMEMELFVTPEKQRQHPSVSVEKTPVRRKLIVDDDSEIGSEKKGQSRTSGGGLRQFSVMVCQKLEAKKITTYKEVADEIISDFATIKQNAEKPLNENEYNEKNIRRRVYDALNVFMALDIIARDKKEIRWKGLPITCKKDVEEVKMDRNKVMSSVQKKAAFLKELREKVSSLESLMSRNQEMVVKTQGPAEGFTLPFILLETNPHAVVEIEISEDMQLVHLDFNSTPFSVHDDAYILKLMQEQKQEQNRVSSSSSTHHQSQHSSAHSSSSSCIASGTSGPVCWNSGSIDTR

T2: CCP16, two-hybrid prey clone E2F5BBC1 (Arabidopsis thaliana, UniProt Q9FNY3 1-292)
T2 construct: partial protein read from the clone; also called DPa; AtDPa
T2 sequence: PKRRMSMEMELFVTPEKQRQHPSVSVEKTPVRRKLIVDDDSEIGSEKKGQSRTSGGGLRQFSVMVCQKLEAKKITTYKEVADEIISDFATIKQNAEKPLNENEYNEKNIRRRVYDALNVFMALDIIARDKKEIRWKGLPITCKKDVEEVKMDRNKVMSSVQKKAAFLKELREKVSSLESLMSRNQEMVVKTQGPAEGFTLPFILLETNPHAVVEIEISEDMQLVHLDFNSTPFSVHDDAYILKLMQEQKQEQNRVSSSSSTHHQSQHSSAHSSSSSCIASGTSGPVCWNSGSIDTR

B1: c-myc-tagged AtDPa 172-292, in vitro translated (other)
chain: EQKLISEEDLEQKLISEEDLSLESLMSRNQEMVVKTQGPAEGFTLPFILLETNPHAVVEIEISEDMQLVHLDFNSTPFSVHDDAYILKLMQEQKQEQNRVSSSSSTHHQSQHSSAHSSSSSCIASGTSGPVCWNSGSIDTR
notes: also called c-myc-AtDPa 172-292
B2: pGBTE2Fa226-356: GAL4 DNA-binding domain fusion of AtE2Fa amino acids 226-356 (other)
chain: MKLLSSIEQACDICRLKKLKCSKEKPKCAKCLKNNWECRYSPKTKRSPLTRAHLTEVESRLERLEQLFLLIFPREDLDMILKMDSLQDIKALLTGLFVQDNVNKDAVTDRLASVETDMPLTLRQHRISATSSSEESSNKGQRQLTVSNRILWKGVDACPGDEDADVSVLQLQAEIENLALEEQALDNQIRQTEERLRDLSENEKNQKWLFVTEEDIKSLPGFQNQTLIAVKAPHGTTLEVPDPDEAADHPQRRYRIILRSTMGPIDVYLVSEFEGKFE
notes: also called E2F5 dimerisation domain; E2Fa (=E2F5) dimerization domain
B3: GAL4 transactivation domain fusion of AtDPb 1-385 (prey in pAD-GAL424) (other, not shown: large carriers)
chain: MTTTGSNSNHNHHESNNNNNNPSTRSWGTAVSGQSVSTSGSMGSPSSRSEQTITVVTSTSDTTFQRLNNLDIQGDDAGSQGASGVKKKKRGQRAAGPDKTGRGLRQFSMKVCEKVESKGRTTYNEVADELVAEFALPNNDGTSPDQQQYDEKNIRRRVYDALNVLMAMDIISKDKKEIQWRGLPRTSLSDIEELKNERLSLRNRIEKKTAYSQELEEQYVGLQNLIQRNEHLYSSGNAPSGGVALPFILVQTRPHATVEVEISEDMQLVHFDFNSTPFELHDDNFVLKTMKFCDQPPQQPNGRNNSQLVCHNFTPENPNKGPSTGPTPQLDMYETHLQSQQHQQHSQLQIIPMPETNNVTSSADTAPVKSPSLPGIMNSSMKPEN
notes: also called full-length AtDPb prey
B4: c-myc-tagged AtDPa 121-213, in vitro translated (other)
chain: EQKLISEEDLEQKLISEEDLIIARDKKEIRWKGLPITCKKDVEEVKMDRNKVMSSVQKKAAFLKELREKVSSLESLMSRNQEMVVKTQGPAEGFTLPFILLETNPHAVVEIEI
notes: also called c-myc-AtDPa 121-213; predicted dimerization domain of the AtDPa
B5: GAL4 transactivation domain fusion of AtE2Fa 226-356 (prey of Table V) (other, not shown: large carriers)
chain: NRILWKGVDACPGDEDADVSVLQLQAEIENLALEEQALDNQIRQTEERLRDLSENEKNQKWLFVTEEDIKSLPGFQNQTLIAVKAPHGTTLEVPDPDEAADHPQRRYRIILRSTMGPIDVYLVSEFEGKFE
notes: its construction is not described
B6: pGBTE2Fb 1-127: GAL4 DNA-binding domain fusion of AtE2Fb amino acids 1-127 (other)
chain: MKLLSSIEQACDICRLKKLKCSKEKPKCAKCLKNNWECRYSPKTKRSPLTRAHLTEVESRLERLEQLFLLIFPREDLDMILKMDSLQDIKALLTGLFVQDNVNKDAVTDRLASVETDMPLTLRQHRISATSSSEESSNKGQRQLTVSMSEEVPQQFPSSKRQLHPSLSSMKPPLVAPGEYHRFDAAETRGGGAVADQVVSDAIVIKSTLKRKTDLVNQIVEVNELNTGVLQTPVSGKGGKAKKTSRSAKSNKSGTLASGSNAGSPGNNFAQAGT

Assays:
[1] = biological target: T3, HA-tagged wild-type AtE2Fb, in vitro translated (Arabidopsis, UniProt Q9FV71 1-469); assay: co-immunoprecipitation (anti-HA and anti-c-myc) of in vitro co-translated tagged proteins, SDS-PAGE autoradiography
T3 construct: wild-type (whole) protein; also called HA-AtE2Fb; E2F3
T3 sequence (Q9FV71 1-469, tags or fused parts left off): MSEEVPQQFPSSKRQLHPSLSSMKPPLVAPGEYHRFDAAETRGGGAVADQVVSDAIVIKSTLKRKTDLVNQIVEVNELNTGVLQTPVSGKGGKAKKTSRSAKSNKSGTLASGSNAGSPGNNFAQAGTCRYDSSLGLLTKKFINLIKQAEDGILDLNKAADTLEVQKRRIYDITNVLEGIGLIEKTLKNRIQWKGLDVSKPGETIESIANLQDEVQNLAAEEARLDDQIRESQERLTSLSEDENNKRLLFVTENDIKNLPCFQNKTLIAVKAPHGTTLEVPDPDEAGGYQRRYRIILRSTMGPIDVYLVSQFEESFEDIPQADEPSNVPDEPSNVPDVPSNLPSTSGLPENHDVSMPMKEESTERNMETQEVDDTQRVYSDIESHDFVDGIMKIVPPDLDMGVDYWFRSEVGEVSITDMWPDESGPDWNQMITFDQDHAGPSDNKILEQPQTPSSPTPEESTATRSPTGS
Experimental: (§1) In vitro transcription and translation experiments were performed using the TNT T7-coupled wheat germ extract kit (Promega) primed with appropriate plasmids for 90 min at 30° C. For immunoprecipitation, 10 μl of the total in vitro translated extract (50 μl) was diluted at 1:5 in Nonidet P40 buffer (50 mM Tris, pH 7.4, 150 mM NaCl, 1% Nonidet P40, 1 mM phenylmethylsulfonyl fluoride, 10 μg/ml leupeptin/aprotinin/pepstatin) and incubated for 2 h at 4° C. with anti-c-myc (9E10; BabCo) or anti-HA (16B12; BabCo) antibodies. Protein-A-Sepharose (40 μl 25% (v/v)) was added and incubated for 1 h at 4° C., then the beads were washed four times with Nonidet P40 buffer. Immune complexes were eluted with 10 μl […] sodium dodecyl sulfate (SDS) sample buffer and analyzed by 10% or 15% SDS-PAGE and by autoradiography.
(§2) Similar results were obtained by two-hybrid analysis (see Table 5 of Example 12). To test whether the structural requirements for heterodimerization of the AtDPs were similar to those of their animal homologs, several deletion mutants of AtDPa and AtDPb were constructed (for a schematic illustration, see FIGS. 52 and 53), tagged with the c-myc epitope (FIGS. 54 and 55, panels A). The interactions between the mutant AtDPs and AtE2Fb were analyzed in immunoprecipitation experiments with the specific anti-HA or anti-c-myc antibodies ([…], panels B and C, respectively). […]

[2] = biological target: T1, GAL4 transactivation domain fusion of …; assay: yeast two-hybrid, growth on His- minimal medium; legend: +, positive interaction
Experimental: (§3) Different combinations between bait (pGBTE2Fa226-356, pGBTE2Fb-Rb, or pGBTE2Fb 1-127, SEQ ID NO:207) and prey constructs were transformed into yeast cells and assayed for their ability to grow on His⁻ minimal media after 3 days of incubation at 30° C. Bait plasmids co-transformed with empty pAD-GAL424 and prey plasmids co-transformed with empty pGBT9 were assessed along as controls for the specificity of the interaction.
(§4) Different combinations between AtE2Fs bait and AtDPs prey constructs were tested for growth on His minimal media. −, no interaction; +, positive interaction; NT, not tested.

[3] = biological target: B3; assay: as above
Experimental: as §3, §4

[4] = biological target: T2, CCP16, two-hybrid prey clone E2F5BBC1; assay: yeast two-hybrid library screen (GAL4, His prototrophy in HF7c); prey clone isolated with this bait
Experimental: For library screening, vectors and strains (HF7c) were provided with the Matchmaker two-hybrid system (Clontech). The dimerization and DNA-binding domains of the AtE2Fa (amino acids 226-356; SEQ ID NO:205) were amplified by polymerase chain reaction (PCR) and subcloned in-frame with the GAL4 DNA-binding domain of pGBT9 (Clontech) to create the bait plasmid pGBTE2Fa226-356. Screens were performed as described previously (De Veylder et al. 1999; Planta 208, 453-462). A second library screening was performed with the AtE2Fb construct (pGBTE2Fb-Rb) lacking the Rb-binding domain (amino acids 1-385; SEQ ID-NO:206). Plasmids from interacting clones were isolated and sequenced.

[5] = biological target: T4, pGBT DPa 1-292: GAL4 DNA-binding domain fusion of AtDPa 1-292 (Arabidopsis thaliana); assay: yeast two-hybrid, growth on His- minimal medium; legend: -, no interaction
T4 construct: its construction is not described

[6] = biological target: T5, pGBT DPb 1-385: GAL4 DNA-binding domain fusion of AtDPb 1-385 (Arabidopsis thaliana); assay: as above
T5 construct: its construction is not described

[7] = biological target: T6, pGBTE2Fb-Rb: GAL4 DNA-binding domain fusion of AtE2Fb amino acids 1-385 (lacking the Rb-binding domain) (Arabidopsis); assay: yeast two-hybrid, growth on His- minimal medium; legend: +, positive interaction
T6 construct: also called E2F3 N-terminal; E2Fb (=E2F3) N-terminal domain
Experimental: as §3, §4

[8] = biological target: T3, HA-tagged wild-type AtE2Fb, in vitro …; assay: co-immunoprecipitation (anti-HA) of in vitro co-translated tagged proteins, SDS-PAGE autoradiography
Experimental: as §1, §2

[9] = biological target: T6, pGBTE2Fb-Rb: GAL4 DNA-binding domain …; assay: yeast two-hybrid, growth on His- minimal medium; legend: -, no interaction
[10] = biological target: B2; assay: as above
[11] = biological target: B6; assay: as above
[12] = biological target: T7, empty pGBT9 (GAL4 DNA-binding domain alone) (UniProt P04386 1-147); assay: yeast two-hybrid, growth on His- minimal medium; empty bait vector control; legend: -, no interaction
T7 construct: empty bait vector, control for specificity; also called pBGT9
Experimental: as §3, §4

[13] = biological target: T1, GAL4 transactivation domain fusion of …; assay: yeast two-hybrid, growth on His- minimal medium; legend: -, no interaction
[14] = biological target: B3; assay: as above

B1
binding result [1]: no binding

B2
binding result [2]: binds
binding result [3]: binds
binding result [4]: binds

B3
binding result [5]: no binding
binding result [6]: no binding
binding result [7]: binds

B4
binding result [8]: no binding

B5
binding result [9]: no binding
binding result [10]: no binding
binding result [11]: no binding
binding result [12]: no binding

B6
binding result [13]: no binding
binding result [14]: no binding
